In patent US20100151573A1 (published 2010):

Assays:
[1] = target: T1, Recombinant human P-selectin/Fc chimera (rhP/Fc), not conjugated, adsorbed on microtubing (human, UniProt P16109 42-771); test: perfusion of HL60 cells through rhP/Fc coated microtube
T1 construct: Microtubing pre-incubated with rhP/Fc at 60 ug/ml in PBS for 2 h, then coated with non-targeting nanoparticles; Fc part of the bought chimera not given
T1 sequence (looked up): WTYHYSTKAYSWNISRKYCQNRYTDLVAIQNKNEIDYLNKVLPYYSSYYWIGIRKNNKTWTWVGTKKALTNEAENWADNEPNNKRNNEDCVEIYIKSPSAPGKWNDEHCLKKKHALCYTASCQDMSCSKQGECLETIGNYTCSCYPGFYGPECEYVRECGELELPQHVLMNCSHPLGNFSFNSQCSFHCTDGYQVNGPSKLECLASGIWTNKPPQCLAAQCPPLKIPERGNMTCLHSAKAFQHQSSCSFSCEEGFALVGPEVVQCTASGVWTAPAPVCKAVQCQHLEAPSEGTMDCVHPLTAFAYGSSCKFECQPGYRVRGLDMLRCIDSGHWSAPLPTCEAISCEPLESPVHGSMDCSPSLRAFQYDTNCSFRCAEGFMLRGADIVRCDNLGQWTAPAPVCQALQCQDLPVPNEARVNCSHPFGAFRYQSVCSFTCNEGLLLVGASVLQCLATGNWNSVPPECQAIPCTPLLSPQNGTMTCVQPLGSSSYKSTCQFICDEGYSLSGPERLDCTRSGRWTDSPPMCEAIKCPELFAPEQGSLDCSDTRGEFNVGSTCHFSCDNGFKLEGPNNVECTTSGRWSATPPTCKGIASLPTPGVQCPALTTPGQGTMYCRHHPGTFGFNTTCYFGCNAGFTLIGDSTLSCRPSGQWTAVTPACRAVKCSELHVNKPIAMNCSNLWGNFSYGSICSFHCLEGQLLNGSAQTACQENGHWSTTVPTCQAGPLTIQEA

[2] = target: T2, Recombinant human P-selectin/Fc chimera covalently coupled to DSPE-PEG2000 maleimide and inserted into … (human, UniProt P16109 42-771, sulfhydryl groups introduced at primary amines with Traut's reagent (2-iminothiolane) and linked to the maleimide group of DSPE-PEG2000; positions not stated); test: perfusion of HL60 cells through nanoparticle coated microtube, microscopy
T2 construct: Bought rhP/Fc (R&D Systems); also called rhP/Fc-DSPE-PEG2000 maleimide; PS-DSPE-PEG NP; Fc part of the bought chimera not given
T2 sequence (looked up): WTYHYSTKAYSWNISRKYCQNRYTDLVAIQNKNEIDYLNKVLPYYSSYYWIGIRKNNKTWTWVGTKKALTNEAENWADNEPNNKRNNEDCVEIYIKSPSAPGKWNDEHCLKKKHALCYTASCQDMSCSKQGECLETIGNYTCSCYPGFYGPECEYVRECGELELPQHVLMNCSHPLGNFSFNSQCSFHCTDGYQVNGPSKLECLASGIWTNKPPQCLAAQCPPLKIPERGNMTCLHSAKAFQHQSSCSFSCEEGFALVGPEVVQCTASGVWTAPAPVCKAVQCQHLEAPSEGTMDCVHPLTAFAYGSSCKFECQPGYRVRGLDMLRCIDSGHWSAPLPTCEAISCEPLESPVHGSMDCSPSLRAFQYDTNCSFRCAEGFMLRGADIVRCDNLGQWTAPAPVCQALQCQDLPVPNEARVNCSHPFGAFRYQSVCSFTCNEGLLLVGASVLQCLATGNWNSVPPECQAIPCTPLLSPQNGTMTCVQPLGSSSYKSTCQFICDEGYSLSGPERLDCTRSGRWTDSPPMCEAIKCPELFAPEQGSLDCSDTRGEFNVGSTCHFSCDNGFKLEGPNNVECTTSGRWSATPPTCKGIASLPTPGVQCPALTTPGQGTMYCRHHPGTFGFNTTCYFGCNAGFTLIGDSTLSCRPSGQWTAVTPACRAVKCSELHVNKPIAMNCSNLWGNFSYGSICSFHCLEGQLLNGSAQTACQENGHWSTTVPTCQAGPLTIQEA
Procedure: P-selectin nanoparticles were coated onto the surface of microrenathane tubing for 2 h at RT, and then perfusion experiments conducted. (a) and (b) were taken before perfusion, (c) and (d) were taken after perfusion but before the cells were released. (e) and (f) were taken after the adherent cells were released from the microtubing. In (g) and (h), HL60 cells were perfused through the P-selectin coated tube. In (i) and (j), cells were pre-incubated with anti-PSGL-1 for 1 h at RT and then perfused through the P-selectin coated tube. In (k) and (l), the perfused cells were MCF7. In (m) and (n), the P-selectin nanoparticles were incubated with anti-P-selectin for 1 h at RT and then applied to the microtube coating. In (o) and (p), P-selectin was replaced with IgG to construct the coating nanoparticles. The pictures were taken after cellular perfusion but before the cells were released from the surface. [III]. Nanoparticles alone could not (q, r, s) but P-selectin nanoparticles could (t, u, v) deliver Cy3-siRNA into HL60 cells under rolling conditions in the microtubing. q and t were taken in epifluorescence mode, r and u were taken in brightfield mode, and s and v are the merge of q and r, and […]. TRITC represents Tetramethyl Rhodamine Iso-Thiocyanate filter. […]

binding result [1]: binds
binding result [2]: binds
B1: P-selectin glycoprotein ligand-1 (PSGL-1) on HL60 cells (receptor, UniProt Q14242 42-412, looked up)
chain: QATEYEYLDYDFLPETEPPEMLRNSTDTTPLTGPGTPESTTVEPAARRSTGLDAGGAVTELTTELANMGNLSTDSAAMEIQTTQPAATEAQTTQPVPTEAQTTPLAATEAQTTRLTATEAQTTPLAATEAQTTPPAATEAQTTQPTGLEAQTTAPAAMEAQTTAPAAMEAQTTPPAAMEAQTTQTTAMEAQTTAPEATEAQTTQPTATEAQTTPLAAMEALSTEPSATEALSMEPTTKRGLFIPFSVSSVTHKGIPMAASNLSVNYPVGAPDHISVKQCLLAILILALVATIFFVCTVVLAVRLSRKGHMYPVRNYSPTEMVCISSLLPDGGEGPSATANGGLSKAKSPGLTPEPREDREGDDLTLHSFLP
notes: whole, on cells; also called P-selectin receptor; PSGL-1 receptors in HL60 cells
